Measurements reported in US20260217833A1 (APTEVO RESEARCH AND DEVELOPMENT, published 2026).
Positions count from the first letter of the chain named.

B1: CD4001049 (bispecific antibody)
scFv-Fc-scFv chain: DIVMSQSPSSLAVSVGEKVTMSCKSSQSLLFSVNQKNYLAWYQQKPGQSPKLLIYWASTRESGVPDRFTGSGSGTDFTLTIGSVKAEDLAVYYCQHYYSYPWTFGGGTKLEIKGGGGSGGGGSGGGGSGGGGSQVQLQQSGAELMNPGASVRISCKATGYTFSTSWIEWIKQRPGHGLEWIGEILPGSGSTNYNEKFKGKATFTADTSSNTAYMQLSSLTFEDSAVYYCARGDDGSYVRWYFDVWGAGTTVTVSSEPKSSDKTHTCPPCPAPPAAAPSVFLFPPKPKDTLMISRTPEVTCVVVDVSHEDPEVKFNWYVDGVEVHNAKTKPREEQYNSTYRVVSVLTVLHQDWLNGKEYKCAVSNKALPAPIEKTISKAKGQPREPQVYTLPPSRDELTKNQVSLTCLVKGFYPSDIAVEWESNGQPENNYKTTPPVLDSDGSFFLYSKLTVDKSRWQQGNVFSCSVMHEALHNHYTQKSLSLSPGGGGSPSEVQLVESGGGLVKPGGSLRLSCAASGFTFSDYGMAWVRQAPGKGLEWVAFITSLAYIIYYADSVKGRFTISRDNAKNSLYLQMNSLRAEDTAVYYCARNYGSSPYYFDYWGQGTLVTVSSGGGGSGGGGSGGGGSGGGGSDIQMTQSPSSLSASVGDRVTITCRASQDINKFLSWYQQKPGKAPKLLIHYTSSLQPGVPSRFSGSGSGTDFTLTISSLQPEDFATYYCLQYDNLYTFGQGTKLEIK
notes: also called CD40_1D5 x hFc x PDL_5F9
B2: CD4001073 (bispecific antibody)
CD40_2H7 x Fc-Knob: DIVMTQSHKFMSTSVGDRVSITCKASQDVNTAVAWYQQKPGQSPKLLIYSASYRYTGVPDRFTGSGSGTDFTFTISSVQAEDLAVYYCQQHYSTPWTFGGGTKLEIKGGGGSGGGGSGGGGSGGGGSQVQLQQSGAELAKPGASVKMSCKASGYAFTTYWMHWVKQRPGQGLEWIGYINPTTGYTDYNQKFKDKATLTADKSSSTAYMQLSSLTSEDSAVYYCARWGLPPFAYWGQGTLVTVSAEPKSSDKTHTCPPCPAPPAAAPSVFLFPPKPKDTLMISRTPEVTCVVVDVSHEDPEVKFNWYVDGVEVHNAKTKPREEQYNSTYRVVSVLTVLHQDWLNGKEYKCAVSNKALPAPIEKTISKAKGQPREPQVYTLPPSRDELTKNQVSLWCLVKGFYPSDIAVEWESNGQPENNYKTTPPVLDSDGSFFLYSKLTVDKSRWQQGNVFSCSVMHEALHNHYTQKSLSLSPG
CD40_2H7 x Fc-Hole x PDL_5F9: DIVMTQSHKFMSTSVGDRVSITCKASQDVNTAVAWYQQKPGQSPKLLIYSASYRYTGVPDRFTGSGSGTDFTFTISSVQAEDLAVYYCQQHYSTPWTFGGGTKLEIKGGGGSGGGGSGGGGSGGGGSQVQLQQSGAELAKPGASVKMSCKASGYAFTTYWMHWVKQRPGQGLEWIGYINPTTGYTDYNQKFKDKATLTADKSSSTAYMQLSSLTSEDSAVYYCARWGLPPFAYWGQGTLVTVSAEPKSSDKTHTCPPCPAPPAAAPSVFLFPPKPKDTLMISRTPEVTCVVVDVSHEDPEVKFNWYVDGVEVHNAKTKPREEQYNSTYRVVSVLTVLHQDWLNGKEYKCAVSNKALPAPIEKTISKAKGQPREPQVYTLPPSRDELTKNQVSLSCAVKGFYPSDIAVEWESNGQPENNYKTTPPVLDSDGSFFLVSKLTVDKSRWQQGNVFSCSVMHEALHNRFTQKSLSLSPGGGGSPSEVQLVESGGGLVKPGGSLRLSCAASGFTFSDYGMAWVRQAPGKGLEWVAFITSLAYIIYYADSVKGRFTISRDNAKNSLYLQMNSLRAEDTAVYYCARNYGSSPYYFDYWGQGTLVTVSSGGGGSGGGGSGGGGSGGGGSDIQMTQSPSSLSASVGDRVTITCRASQDINKFLSWYQQKPGKAPKLLIHYTSSLQPGVPSRFSGSGSGTDFTLTISSLQPEDFATYYCLQYDNLYTFGQGTKLEIK
B3: CD4001067 (bispecific antibody)
PDL_5F9 x Fc-Knob: EVQLVESGGGLVKPGGSLRLSCAASGFTFSDYGMAWVRQAPGKGLEWVAFITSLAYIIYYADSVKGRFTISRDNAKNSLYLQMNSLRAEDTAVYYCARNYGSSPYYFDYWGQGTLVTVSSGGGGSGGGGSGGGGSGGGGSDIQMTQSPSSLSASVGDRVTITCRASQDINKFLSWYQQKPGKAPKLLIHYTSSLQPGVPSRFSGSGSGTDFTLTISSLQPEDFATYYCLQYDNLYTFGQGTKLEIKEPKSSDKTHTCPPCPAPPAAAPSVFLFPPKPKDTLMISRTPEVTCVVVDVSHEDPEVKFNWYVDGVEVHNAKTKPREEQYNSTYRVVSVLTVLHQDWLNGKEYKCAVSNKALPAPIEKTISKAKGQPREPQVYTLPPSRDELTKNQVSLWCLVKGFYPSDIAVEWESNGQPENNYKTTPPVLDSDGSFFLYSKLTVDKSRWQQGNVFSCSVMHEALHNHYTQKSLSLSPG
CD40_2H7 x Fc-Hole: B2 CD40_2H7 x Fc-Knob with W394S, L396A, Y435V, H463R, Y464F
B4: CD4001066 (PDL_5F9 x hFc x CD40_1D5) (bispecific antibody)
chain: EVQLVESGGGLVKPGGSLRLSCAASGFTFSDYGMAWVRQAPGKGLEWVAFITSLAYIIYYADSVKGRFTISRDNAKNSLYLQMNSLRAEDTAVYYCARNYGSSPYYFDYWGQGTLVTVSSGGGGSGGGGSGGGGSGGGGSDIQMTQSPSSLSASVGDRVTITCRASQDINKFLSWYQQKPGKAPKLLIHYTSSLQPGVPSRFSGSGSGTDFTLTISSLQPEDFATYYCLQYDNLYTFGQGTKLEIKEPKSSDKTHTCPPCPAPPAAAPSVFLFPPKPKDTLMISRTPEVTCVVVDVSHEDPEVKFNWYVDGVEVHNAKTKPREEQYNSTYRVVSVLTVLHQDWLNGKEYKCAVSNKALPAPIEKTISKAKGQPREPQVYTLPPSRDELTKNQVSLTCLVKGFYPSDIAVEWESNGQPENNYKTTPPVLDSDGSFFLYSKLTVDKSRWQQGNVFSCSVMHEALHNHYTQKSLSLSPGGGGSPSDIVMSQSPSSLAVSVGEKVTMSCKSSQSLLFSVNQKNYLAWYQQKPGQSPKLLIYWASTRESGVPDRFTGSGSGTDFTLTIGSVKAEDLAVYYCQHYYSYPWTFGGGTKLEIKGGGGSGGGGSGGGGSGGGGSQVQLQQSGAELMNPGASVRISCKATGYTFSTSWIEWIKQRPGHGLEWIGEILPGSGSTNYNEKFKGKATFTADTSSNTAYMQLSSLTFEDSAVYYCARGDDGSYVRWYFDVWGAGTTVTVSS
notes: ADAPTIR format, anti-PD-L1 scFv on N-terminus, anti-CD40 scFv on C-terminus; also called CD4001066 (1D5)
B5: CD4001064 (PDL_5F9 x hFc x CD40_2H7) (bispecific antibody)
chain: EVQLVESGGGLVKPGGSLRLSCAASGFTFSDYGMAWVRQAPGKGLEWVAFITSLAYIIYYADSVKGRFTISRDNAKNSLYLQMNSLRAEDTAVYYCARNYGSSPYYFDYWGQGTLVTVSSGGGGSGGGGSGGGGSGGGGSDIQMTQSPSSLSASVGDRVTITCRASQDINKFLSWYQQKPGKAPKLLIHYTSSLQPGVPSRFSGSGSGTDFTLTISSLQPEDFATYYCLQYDNLYTFGQGTKLEIKEPKSSDKTHTCPPCPAPPAAAPSVFLFPPKPKDTLMISRTPEVTCVVVDVSHEDPEVKFNWYVDGVEVHNAKTKPREEQYNSTYRVVSVLTVLHQDWLNGKEYKCAVSNKALPAPIEKTISKAKGQPREPQVYTLPPSRDELTKNQVSLTCLVKGFYPSDIAVEWESNGQPENNYKTTPPVLDSDGSFFLYSKLTVDKSRWQQGNVFSCSVMHEALHNHYTQKSLSLSPGGGGSPSDIVMTQSHKFMSTSVGDRVSITCKASQDVNTAVAWYQQKPGQSPKLLIYSASYRYTGVPDRFTGSGSGTDFTFTISSVQAEDLAVYYCQQHYSTPWTFGGGTKLEIKGGGGSGGGGSGGGGSGGGGSQVQLQQSGAELAKPGASVKMSCKASGYAFTTYWMHWVKQRPGQGLEWIGYINPTTGYTDYNQKFKDKATLTADKSSSTAYMQLSSLTSEDSAVYYCARWGLPPFAYWGQGTLVTVSA
notes: ADAPTIR format, anti-PD-L1 scFv on N-terminus, anti-CD40 scFv on C-terminus; also called CD4001064 (2H7)

Biological target: T1, Human PD-L1 full-length (human, UniProt Q9NZQ7 19-290)
T1 construct: also called PDL01021; CHOK1SV/huPDL1
T1 sequence (Q9NZQ7 19-290): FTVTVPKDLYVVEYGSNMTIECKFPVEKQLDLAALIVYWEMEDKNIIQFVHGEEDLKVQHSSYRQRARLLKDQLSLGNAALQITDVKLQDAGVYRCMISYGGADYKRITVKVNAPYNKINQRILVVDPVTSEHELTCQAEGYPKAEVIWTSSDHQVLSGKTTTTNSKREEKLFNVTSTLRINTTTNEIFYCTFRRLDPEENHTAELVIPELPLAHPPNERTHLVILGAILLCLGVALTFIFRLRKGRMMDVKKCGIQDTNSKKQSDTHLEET
Experiment: flow cytometry, CHOK1SV/human PD-L1 cells

Question: Does B1 bind?
Answer: binds

Question: Does B2 bind?
Answer: binds

Question: Does B3 bind?
Answer: binds

Question: Does B4 bind?
Answer: binds

Question: Does B5 bind?
Answer: binds
